Earlier results, collected in patent US20250333489A1 (ANDREMACON S.R.L., priority 2021, published 2025).
pKd: −log10 of the molar value.

Molecular target: T1, EphB4 (Homo sapiens, UniProt P54760)
T1 sequence (P54760 16-987): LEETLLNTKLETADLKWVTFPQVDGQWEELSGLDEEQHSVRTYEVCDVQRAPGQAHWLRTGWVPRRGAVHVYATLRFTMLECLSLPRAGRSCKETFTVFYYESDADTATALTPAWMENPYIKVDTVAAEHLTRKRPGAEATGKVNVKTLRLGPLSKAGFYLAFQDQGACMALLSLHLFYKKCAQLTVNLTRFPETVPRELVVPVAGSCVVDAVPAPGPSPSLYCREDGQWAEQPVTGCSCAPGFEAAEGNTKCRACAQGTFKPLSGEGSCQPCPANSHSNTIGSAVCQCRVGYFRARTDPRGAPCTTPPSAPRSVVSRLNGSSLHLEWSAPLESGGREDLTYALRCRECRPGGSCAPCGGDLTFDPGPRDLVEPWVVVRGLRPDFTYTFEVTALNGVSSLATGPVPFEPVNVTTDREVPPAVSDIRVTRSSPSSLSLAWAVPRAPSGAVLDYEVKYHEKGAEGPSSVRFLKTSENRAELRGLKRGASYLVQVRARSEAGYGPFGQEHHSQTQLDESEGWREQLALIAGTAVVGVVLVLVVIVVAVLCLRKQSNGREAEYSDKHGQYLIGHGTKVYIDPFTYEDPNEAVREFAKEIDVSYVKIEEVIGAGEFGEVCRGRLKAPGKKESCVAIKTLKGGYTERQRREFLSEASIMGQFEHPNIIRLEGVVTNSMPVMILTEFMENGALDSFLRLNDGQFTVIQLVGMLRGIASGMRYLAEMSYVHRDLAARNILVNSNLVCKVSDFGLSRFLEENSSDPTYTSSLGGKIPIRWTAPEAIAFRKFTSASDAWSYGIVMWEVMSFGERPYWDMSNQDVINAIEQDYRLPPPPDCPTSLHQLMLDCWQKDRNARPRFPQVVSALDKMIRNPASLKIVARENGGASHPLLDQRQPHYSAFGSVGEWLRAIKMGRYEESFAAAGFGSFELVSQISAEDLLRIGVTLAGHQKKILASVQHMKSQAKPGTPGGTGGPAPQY
Conditions: read-out: binding affinity of Epo for EphB4 (KD)

pKd: 6.06
Substance: Epo: 30.4 kDa glycoprotein produced and secreted mainly by the kidneys; main erythropoietic hormone
